Results from patent publication US20100062462.
Changes are numbered by the printed parent chain.

Assays:
[1] = test system: T1, Flag-procaspase-8-Myc fusion polypeptide
T1 sequence: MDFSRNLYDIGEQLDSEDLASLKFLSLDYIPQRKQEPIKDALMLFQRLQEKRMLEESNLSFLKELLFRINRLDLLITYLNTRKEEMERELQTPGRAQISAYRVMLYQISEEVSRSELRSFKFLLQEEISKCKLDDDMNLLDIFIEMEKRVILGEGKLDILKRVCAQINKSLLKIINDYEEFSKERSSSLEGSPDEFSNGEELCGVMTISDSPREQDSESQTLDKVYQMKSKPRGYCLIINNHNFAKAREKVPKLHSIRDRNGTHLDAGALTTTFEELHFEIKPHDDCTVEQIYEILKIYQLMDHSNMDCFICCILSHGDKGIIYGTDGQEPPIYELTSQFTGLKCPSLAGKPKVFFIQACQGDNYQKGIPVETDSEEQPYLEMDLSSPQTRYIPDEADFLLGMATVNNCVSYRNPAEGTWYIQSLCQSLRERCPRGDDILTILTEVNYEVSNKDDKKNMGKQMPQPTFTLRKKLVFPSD

procaspase-8 p18 subunit = test system: T2, procaspase-8 p18 subunit
T2 sequence: T1 sequence

[2] = test system: T3, procaspase-8 F355R, F356N
T3 sequence: T1 sequence with F355R, F356N

Substance	cleavage (autoradiography) [1]	cleavage (LC-MS of the cleaved p18 fragment) (procaspase-8 p18 subunit)	cleavage (autoradiography) [2]
renin	another aspartyl protease, renin, did not cause procaspase 8 cleavage		
HIV-1 protease	Incubation of wild-type procaspase-8 with HIV protease resulted in a p41 procaspase-8 fragment	This fragment had a weight of 16158 mass units (cleaved form)	an almost negligible amount of cleavage was observed when procaspase-8 F355R, F356N was incubated with HIV protease
